# Assay results reported in the supplement of paper PMC9112550, “Optimization of the antimicrobial peptide Bac7 by deep mutational scanning” (BMC Biology, 2022).
# Tested on: Escherichia coli TOP10
# Experiment: shrunken log2 fold change of peptide-encoding DNA abundance (4.5 h post-induction vs induction); higher = less antimicrobial activity (less host growth inhibition)
# Settings: time post-induction: 4.5 h; library: site-saturation at positions 5, 18, 19, 20
# 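Also: peptides expressed intracellularly from a pBAD plasmid library in pooled LB shake-flask culture, induced with 0.3% L-arabinose, DNA abundance read by NGS, three biological replicates, DESeq2 with apeglm shrinkage.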
row,Sequence,shrunken log2 fold change
1,RRIRSRPPRLPRPRPRPFKYPRP,-0.418
2,RRIRDRPPRLPRPRPRPNAFPRP,-0.0726
3,RRIRRRPPRLPRPRPRPPWAPRP,0.729
4,RRIRNRPPRLPRPRPRPVEEPRP,0.0471
5,RRIRIRPPRLPRPRPRPTTSPRP,-0.0703
6,RRIRNRPPRLPRPRPRPADFPRP,0.0143
7,RRIRQRPPRLPRPRPRPIWFPRP,-0.000433
8,RRIRGRPPRLPRPRPRPFHQPRP,-0.199
9,RRIRERPPRLPRPRPRPPWSPRP,-0.0222
10,RRIRARPPRLPRPRPRPKWFPRP,0.053
11,RRIRVRPPRLPRPRPRPFCFPRP,0.0496
12,RRIRVRPPRLPRPRPRPESLPRP,-0.175
13,RRIRFRPPRLPRPRPRPPFTPRP,0.0652
14,RRIRERPPRLPRPRPRPGQMPRP,0.0413
15,RRIRMRPPRLPRPRPRPMVGPRP,-0.06
16,RRIRVRPPRLPRPRPRPVKNPRP,0.118
17,RRIRMRPPRLPRPRPRPKAMPRP,0.705
18,RRIRTRPPRLPRPRPRPSGYPRP,-0.256
19,RRIRPRPPRLPRPRPRPGVYPRP,0.0962
20,RRIRRRPPRLPRPRPRPNWFPRP,-0.0681
21,RRIRVRPPRLPRPRPRPKFPPRP,0.102
22,RRIRHRPPRLPRPRPRPQLHPRP,-0.169
23,RRIRFRPPRLPRPRPRPKWIPRP,-0.699
24,RRIRSRPPRLPRPRPRPCDGPRP,0.0333
25,RRIRGRPPRLPRPRPRPLEMPRP,0.998

row,Sequence,shrunken log2 fold change
1,RRIRYRPPRLPRPRPRPMNFPRP,-0.0135
2,RRIRIRPPRLPRPRPRPSRDPRP,-0.0607
3,RRIRQRPPRLPRPRPRPRSHPRP,0.183
4,RRIRYRPPRLPRPRPRPIWRPRP,0.0429
5,RRIRWRPPRLPRPRPRPHWVPRP,0.0436
6,RRIRFRPPRLPRPRPRPFSQPRP,-0.452
7,RRIRHRPPRLPRPRPRPMEIPRP,-0.0801
8,RRIRCRPPRLPRPRPRPHCVPRP,-0.439
9,RRIRARPPRLPRPRPRPEEDPRP,1.77
10,RRIRGRPPRLPRPRPRPKSKPRP,0.611
11,RRIRLRPPRLPRPRPRPFRHPRP,-0.322
12,RRIRFRPPRLPRPRPRPHQHPRP,-0.582
13,RRIRERPPRLPRPRPRPFQFPRP,-0.062
14,RRIRYRPPRLPRPRPRPMMIPRP,-0.00702
15,RRIRQRPPRLPRPRPRPRRAPRP,0.79
16,RRIRARPPRLPRPRPRPGNIPRP,-0.239
17,RRIRIRPPRLPRPRPRPDCMPRP,-0.106
18,RRIRIRPPRLPRPRPRPRPIPRP,0.0745
19,RRIRFRPPRLPRPRPRPGYSPRP,-0.934
20,RRIRSRPPRLPRPRPRPLTLPRP,-0.599
21,RRIRFRPPRLPRPRPRPQMWPRP,-0.0128
22,RRIRHRPPRLPRPRPRPFACPRP,-0.205
23,RRIRARPPRLPRPRPRPHVRPRP,-0.0112
24,RRIRPRPPRLPRPRPRPEILPRP,0.0928
25,RRIRHRPPRLPRPRPRPDEWPRP,-0.000921

row,Sequence,shrunken log2 fold change
1,RRIRMRPPRLPRPRPRPQWIPRP,-0.00285
2,RRIRFRPPRLPRPRPRPPMPPRP,0.568
3,RRIRARPPRLPRPRPRPGEGPRP,1.02
4,RRIRMRPPRLPRPRPRPTTRPRP,0.832
5,RRIRQRPPRLPRPRPRPVAPPRP,0.357
6,RRIRVRPPRLPRPRPRPMGNPRP,-0.0915
7,RRIRRRPPRLPRPRPRPKESPRP,0.023
8,RRIRMRPPRLPRPRPRPWYSPRP,-0.427
9,RRIRMRPPRLPRPRPRPWTKPRP,-0.0384
10,RRIRFRPPRLPRPRPRPPITPRP,-0.389
11,RRIRLRPPRLPRPRPRPWLSPRP,-0.0106
12,RRIRWRPPRLPRPRPRPHVNPRP,-0.315
13,RRIRHRPPRLPRPRPRPIKKPRP,-0.06
14,RRIRVRPPRLPRPRPRPQSTPRP,0.00487
15,RRIRVRPPRLPRPRPRPDLGPRP,0.155
16,RRIRYRPPRLPRPRPRPYICPRP,-0.234
17,RRIRLRPPRLPRPRPRPHCSPRP,-0.747
18,RRIRDRPPRLPRPRPRPALMPRP,0.333
19,RRIRGRPPRLPRPRPRPLTQPRP,0.594
20,RRIRGRPPRLPRPRPRPEHSPRP,0.114
21,RRIRERPPRLPRPRPRPKNHPRP,-0.499
22,RRIRGRPPRLPRPRPRPIEAPRP,0.377
23,RRIRWRPPRLPRPRPRPRYRPRP,0.124
24,RRIRHRPPRLPRPRPRPHFGPRP,-0.00776
25,RRIRTRPPRLPRPRPRPDLMPRP,-0.121

row,Sequence,shrunken log2 fold change
1,RRIRGRPPRLPRPRPRPTRAPRP,1.04
2,RRIRERPPRLPRPRPRPVLNPRP,-0.54
3,RRIRIRPPRLPRPRPRPYWNPRP,-0.694
4,RRIRKRPPRLPRPRPRPIFNPRP,-0.0554
5,RRIRGRPPRLPRPRPRPHCKPRP,0.0392
6,RRIRMRPPRLPRPRPRPRNSPRP,-0.294
7,RRIRCRPPRLPRPRPRPQHEPRP,0.0354
8,RRIRMRPPRLPRPRPRPGTGPRP,0.596
9,RRIRVRPPRLPRPRPRPMLDPRP,-0.215
10,RRIRIRPPRLPRPRPRPPHIPRP,-0.542
11,RRIRTRPPRLPRPRPRPKPLPRP,-0.0401
12,RRIRYRPPRLPRPRPRPILWPRP,-0.0119
13,RRIRTRPPRLPRPRPRPCDSPRP,-0.0585
14,RRIRKRPPRLPRPRPRPWRQPRP,0.182
15,RRIRDRPPRLPRPRPRPCPGPRP,-0.0964
16,RRIRIRPPRLPRPRPRPHVQPRP,-0.131
17,RRIRARPPRLPRPRPRPQPSPRP,0.555
18,RRIRERPPRLPRPRPRPYSLPRP,-0.0204
19,RRIRCRPPRLPRPRPRPHDAPRP,-0.336
20,RRIRLRPPRLPRPRPRPHHLPRP,-0.24
21,RRIRCRPPRLPRPRPRPEMCPRP,0.0156
22,RRIRQRPPRLPRPRPRPAWEPRP,0.245
23,RRIRMRPPRLPRPRPRPQMNPRP,-0.253
24,RRIRWRPPRLPRPRPRPGMCPRP,0.437
25,RRIRHRPPRLPRPRPRPDAHPRP,-0.119

row,Sequence,shrunken log2 fold change
1,RRIRGRPPRLPRPRPRPYYVPRP,-0.0871
2,RRIRHRPPRLPRPRPRPEYIPRP,0.00452
3,RRIRFRPPRLPRPRPRPFHGPRP,0.00193
4,RRIRVRPPRLPRPRPRPDIAPRP,-0.211
5,RRIRDRPPRLPRPRPRPIIWPRP,0.156
6,RRIRARPPRLPRPRPRPQDPPRP,0.557
7,RRIRARPPRLPRPRPRPTKSPRP,0.032
8,RRIRPRPPRLPRPRPRPAAQPRP,0.721
9,RRIRQRPPRLPRPRPRPLHNPRP,0.00263
10,RRIRARPPRLPRPRPRPMGEPRP,0.1
11,RRIRNRPPRLPRPRPRPNRRPRP,-0.133
12,RRIRGRPPRLPRPRPRPNASPRP,0.496
13,RRIRSRPPRLPRPRPRPSLNPRP,-0.142
14,RRIRERPPRLPRPRPRPRVGPRP,0.33
15,RRIRIRPPRLPRPRPRPNSAPRP,-0.234
16,RRIRARPPRLPRPRPRPGLLPRP,0.547
17,RRIRQRPPRLPRPRPRPCIFPRP,-0.142
18,RRIRWRPPRLPRPRPRPTRQPRP,0.195
19,RRIRPRPPRLPRPRPRPDFDPRP,-0.03
20,RRIRIRPPRLPRPRPRPCWSPRP,0.0832
21,RRIRGRPPRLPRPRPRPFYNPRP,0.0314
22,RRIRVRPPRLPRPRPRPWHYPRP,-0.647
23,RRIRVRPPRLPRPRPRPRGYPRP,-0.068
24,RRIRKRPPRLPRPRPRPVGNPRP,0.0255
25,RRIRGRPPRLPRPRPRPMMVPRP,0.294

row,Sequence,shrunken log2 fold change
1,RRIRHRPPRLPRPRPRPLCPPRP,-0.138
2,RRIRRRPPRLPRPRPRPNSPPRP,-0.0118
3,RRIRPRPPRLPRPRPRPGWLPRP,0.468
4,RRIRNRPPRLPRPRPRPSSDPRP,-0.171
5,RRIRNRPPRLPRPRPRPPWTPRP,0.272
6,RRIRTRPPRLPRPRPRPSREPRP,0.427
7,RRIRRRPPRLPRPRPRPYQPPRP,-0.00931
8,RRIRVRPPRLPRPRPRPADAPRP,-0.183
9,RRIRCRPPRLPRPRPRPQAKPRP,0.31
10,RRIRSRPPRLPRPRPRPLWLPRP,-0.0472
11,RRIRKRPPRLPRPRPRPCSNPRP,-0.0227
12,RRIRWRPPRLPRPRPRPVEYPRP,-0.00674
13,RRIRVRPPRLPRPRPRPALIPRP,0.342
14,RRIRFRPPRLPRPRPRPDPGPRP,-0.162
15,RRIRQRPPRLPRPRPRPCQDPRP,0.0207
16,RRIRPRPPRLPRPRPRPDKQPRP,0.0524
17,RRIRWRPPRLPRPRPRPVWLPRP,0.284
18,RRIRMRPPRLPRPRPRPAQHPRP,0.0457
19,RRIRFRPPRLPRPRPRPGGRPRP,0.323
20,RRIRERPPRLPRPRPRPSIQPRP,-0.0558
21,RRIRPRPPRLPRPRPRPDHHPRP,-0.543
22,RRIRNRPPRLPRPRPRPLHDPRP,-0.178
23,RRIRSRPPRLPRPRPRPQGMPRP,-0.124
24,RRIRTRPPRLPRPRPRPGLGPRP,0.466
25,RRIRSRPPRLPRPRPRPSMWPRP,0.149
